One experiment has as its target HLA-A*02:01. The experiment can be described thus: IEDB peptide-MHC binding, purified MHC/direct/fluorescence; filed as Kd, often an IC50 or EC50 that approximates it; ≥ and ≤ were set here for values at or beyond the usual limits of such assays.
Experiment [1] concerns the target HLA-B*51:01. The description is as above.
The target in experiment [2] is HLA-B*15:01. The experiment is described as above.
For experiment [3], the target named is HLA-A*26:01. The experiment is described as above.
The target of the next experiment is HLA-B*07:02. The description is as above.
The target in a further experiment is HLA-A*02:11. Described as above.
The target in a further experiment is HLA-A*02:16. The description is as above.
In experiment [4] the target is HLA-B*39:01. The description is as above.
The target in experiment [5] is HLA-A*03:01. Described as above.
Another experiment addresses HLA-A*24:03. Described as above.
Experiment [6] concerns the target HLA-A*02:19. Described as above.
In another experiment the target is HLA-A*02:03. The description is as above.
The target of experiment [7] is HLA-B*57:01. The experiment is described as above.
For experiment [8], the target named is HLA-A*02:12. Described as above.
Experiment [9] addresses HLA-B*18:01. The description is as above.
For the next experiment, the target named is HLA-A*69:01. Described as above.
For another experiment, the target named is HLA-B*35:01. Described as above.
The target in experiment [10] is HLA-B*46:01. The description is as above.
For experiment [11], the target named is HLA-B*27:03. The description is as above.
Experiment [12] deals with HLA-B*57:01. Kind of experiment: IEDB peptide-MHC binding, purified MHC/competitive/radioactivity; filed as Kd, often an IC50 or EC50 that approximates it; ≥ and ≤ were set here for values at or beyond the usual limits of such assays.
For experiment [13], the target named is HLA-B*15:01. Described as above. The note with it: source organism: Dengue virus 2 Jamaica/1409/1983.
Experiment [14] has as its target HLA-B*51:01. The experiment can be described thus: IEDB peptide-MHC binding, purified MHC/competitive/fluorescence; filed as Kd, often an IC50 or EC50 that approximates it; ≥ and ≤ were set here for values at or beyond the usual limits of such assays. The note with it: source organism: Cryptosporidium parvum Iowa II.
Experiment [15] addresses HLA-A*26:01. Described as above. The following applies: source organism: Cryptosporidium parvum Iowa II.
The target in experiment [16] is HLA-B*39:01. The experiment is described as above. The note with it: source organism: Cryptosporidium parvum Iowa II.
For experiment [17], the target named is HLA-A*03:01. The experiment is described as above. The note with it: source organism: Cryptosporidium parvum Iowa II.
In experiment [18] the target is HLA-A*02:19. The description is as above. The following applies: source organism: Cryptosporidium parvum Iowa II.
For experiment [19], the target named is HLA-A*02:12. Described as above. The note with it: source organism: Cryptosporidium parvum Iowa II.
Experiment [20] deals with HLA-A*29:02. Described as above. The note with it: source organism: Cryptosporidium parvum Iowa II.
Experiment [21] has as its target HLA-B*18:01. Described as above. The following applies: source organism: Cryptosporidium parvum Iowa II.
Experiment [22] concerns the target HLA-B*46:01. Described as above. The following applies: source organism: Cryptosporidium parvum Iowa II.
Experiment [23] addresses HLA-B*27:03. Described as above. The following applies: source organism: Cryptosporidium parvum Iowa II.
Another experiment addresses HLA-A*01:01. The description is as above. The following applies: source organism: Influenza A virus (A/swine/Finistere/127/99(H3N2)).
The target in another experiment is HLA-B*15:17. Kind of experiment: IEDB peptide-MHC binding, purified MHC/direct/fluorescence; filed as Kd, often an IC50 or EC50 that approximates it; ≥ and ≤ were set here for values at or beyond the usual limits of such assays. The note with it: source organism: Burkholderia mallei ATCC 23344.
The target of experiment [24] is HLA-A*29:02. The experiment is described as above. The note with it: source organism: Burkholderia mallei ATCC 23344.
Experiment [25] deals with HLA-A*68:02. Described as above.
Experiment [26] addresses HLA-A*68:02. Kind of experiment: IEDB peptide-MHC binding, purified MHC/competitive/radioactivity; filed as Kd, often an IC50 or EC50 that approximates it; ≥ and ≤ were set here for values at or beyond the usual limits of such assays. The note with it: source organism: Dengue virus 1 Brazil/97-11/1997.
Setting [27] is: source organism: Vibrio parahaemolyticus AQ3810.
The mark [28] stands for this setting: source organism: Mycobacterium tuberculosis str. Haarlem.
[29] abbreviates: source organism: Dengue virus 2 Jamaica/1409/1983.
Where [30] appears, read: source organism: Cryptosporidium parvum Iowa II.
The mark [31] stands for this setting: source organism: Burkholderia mallei ATCC 23344.
The mark [32] stands for this setting: source organism: Burkholderia mallei.

Broadly, the Kd is the equilibrium constant for the complex coming apart. EASTWLDIF: the Kd with HLA-A*02:01 (setting [27]) was ≥ 20 µM; with HLA-B*51:01 [1] (setting [27]), ≥ 20 µM; in the experiment with HLA-B*15:01 [2] (setting [27]), 0.174 µM; with HLA-A*26:01 [3] (setting [27]) it was ≥ 20 µM; with HLA-B*07:02 (setting [27]) it was ≥ 20 µM; with HLA-A*02:11 (setting [27]), ≥ 20 µM. The Kd with HLA-A*02:16 (setting [27]), with HLA-B*39:01 [4] (setting [27]), with HLA-A*03:01 [5] (setting [27]), with HLA-A*24:03 (setting [27]), with HLA-A*02:19 [6] (setting [27]) and in the experiment with HLA-A*02:03 (setting [27]) was ≥ 20 µM each time. The Kd with HLA-B*57:01 [7] (setting [27]) is ≥ 20 µM; in the experiment with HLA-A*02:12 [8] (setting [27]), ≥ 20 µM; in the experiment with HLA-B*18:01 [9] (setting [27]), ≥ 20 µM; with HLA-A*69:01 (setting [27]), ≥ 20 µM; with HLA-B*35:01 (setting [27]), 0.016 µM; in the experiment with HLA-B*46:01 [10] (setting [27]), ≥ 20 µM. For the same sequence, the Kd with HLA-B*27:03 [11] (setting [27]) was ≥ 20 µM.

Turning to EILWDVIPF, the Kd is ≥ 20 µM in the experiment with HLA-A*02:01 (setting [28]); ≥ 20 µM in the experiment with HLA-B*51:01 [1] (setting [28]); 0.191 µM in the experiment with HLA-B*15:01 [2] (setting [28]); ≥ 20 µM in the experiment with HLA-A*26:01 [3] (setting [28]); 6.5 µM with HLA-B*07:02 (setting [28]); ≥ 20 µM with HLA-A*02:16 (setting [28]). In addition, the Kd with HLA-B*39:01 [4] (setting [28]), in the experiment with HLA-A*03:01 [5] (setting [28]), with HLA-A*24:03 (setting [28]), with HLA-A*02:19 [6] (setting [28]), with HLA-A*02:03 (setting [28]) and with HLA-B*57:01 [7] (setting [28]) was ≥ 20 µM throughout. In addition, the Kd in the experiment with HLA-A*02:12 [8] (setting [28]) was ≥ 20 µM; with HLA-B*35:01 (setting [28]), 0.003 µM; with HLA-B*46:01 [10] (setting [28]) it was ≥ 20 µM; in the experiment with HLA-B*27:03 [11] (setting [28]) it was ≥ 20 µM.

For the sequence ISQGAGWSL, the Kd with HLA-B*57:01 [12] (setting [29]) was 0.472 µM.

Consider ISRMLINRF, for which the Kd with HLA-B*15:01 [13] was found to be 0.178 µM; with HLA-B*57:01 [12] (setting [29]), 0.0159 µM.

With KIVPLPPMY, the Kd in the experiment with HLA-B*51:01 [14] was ≥ 20 µM; with HLA-A*26:01 [15] it was ≥ 20 µM; with HLA-B*39:01 [16] it was ≥ 20 µM; in the experiment with HLA-A*03:01 [17], 0.796 µM; with HLA-A*02:19 [18], ≥ 20 µM; in the experiment with HLA-A*02:12 [19], ≥ 20 µM. In addition, the Kd with HLA-A*29:02 [20] was 0.277 µM; with HLA-B*18:01 [21], ≥ 20 µM; in the experiment with HLA-B*46:01 [22] it was ≥ 20 µM; in the experiment with HLA-B*27:03 [23], ≥ 20 µM.

LASIDLKY: the Kd with HLA-A*01:01 is 3.46 µM.

Take LPLESCFGV: the Kd is 0.355 µM in the experiment with HLA-B*51:01 [1] (setting [30]); ≥ 20 µM in the experiment with HLA-B*15:01 [2] (setting [30]); ≥ 20 µM with HLA-A*26:01 [3] (setting [30]); ≥ 20 µM with HLA-A*02:11 (setting [30]); ≥ 20 µM in the experiment with HLA-A*03:01 [5] (setting [30]); ≥ 20 µM with HLA-A*24:03 (setting [30]). The Kd in the experiment with HLA-A*02:19 [6] (setting [30]), with HLA-A*02:03 (setting [30]), in the experiment with HLA-B*57:01 [7] (setting [30]), in the experiment with HLA-A*02:12 [8] (setting [30]), with HLA-B*18:01 [9] (setting [30]) and with HLA-B*46:01 [10] (setting [30]) was ≥ 20 µM each time. Moreover, in the experiment with HLA-B*27:03 [11] (setting [30]), the Kd is ≥ 20 µM.

Regarding LTSRENLLLG, the dissociation constant (Kd) with HLA-B*57:01 [12] (source organism: Dengue virus 3 Martinique/1243/1999) amounted to 0.541 µM.

In the case of QHAWPLPPL, the Kd in the experiment with HLA-A*02:01 (setting [31]), with HLA-B*51:01 [1] (setting [31]), in the experiment with HLA-B*15:01 [2] (setting [31]), with HLA-A*26:01 [3] (setting [31]), with HLA-A*02:16 (setting [31]) and with HLA-B*15:17 was ≥ 20 µM throughout. For the same sequence, the Kd with HLA-A*03:01 [5] (setting [31]), in the experiment with HLA-A*02:19 [6] (setting [31]), in the experiment with HLA-A*02:03 (setting [31]), with HLA-B*57:01 [7] (setting [31]), with HLA-A*02:12 [8] (setting [31]) and with HLA-A*29:02 [24] was ≥ 20 µM in each case. For the same sequence, the Kd with HLA-B*18:01 [9] (setting [31]), with HLA-A*68:02 [25] (setting [31]), in the experiment with HLA-B*46:01 [10] (setting [31]) and with HLA-B*27:03 [11] (setting [31]) was ≥ 20 µM throughout.

Consider QTSGTTTIFA, for which the Kd in the experiment with HLA-B*57:01 [12] (source organism: Dengue virus 1 Brazil/97-11/1997) turned out to be 0.454 µM; with HLA-A*68:02 [26], 0.00212 µM.

For RVVRPWGSY, the Kd in the experiment with HLA-A*02:01 (setting [32]), with HLA-B*51:01 [1] (setting [32]), with HLA-A*26:01 [3] (setting [32]), in the experiment with HLA-A*02:11 (setting [32]), in the experiment with HLA-A*02:16 (setting [32]) and in the experiment with HLA-B*39:01 [4] (setting [32]) was ≥ 20 µM throughout. Moreover, the Kd with HLA-A*24:03 (setting [32]), with HLA-A*02:19 [6] (setting [32]), with HLA-A*02:03 (setting [32]), in the experiment with HLA-A*02:12 [8] (setting [32]), with HLA-B*18:01 [9] (setting [32]) and with HLA-A*69:01 (setting [32]) was ≥ 20 µM throughout. Also, the dissociation constant Kd in the experiment with HLA-A*68:02 [25] (setting [32]), in the experiment with HLA-B*46:01 [10] (setting [32]) and with HLA-B*27:03 [11] (setting [32]) was ≥ 20 µM throughout.

The values above are taken from the Immune Epitope Database (IEDB).
